From patent publication US20200223910A1 (STERLING IP, published 2020)
Numbering of substitutions follows the chain as printed. In names and notes the source's numbering stands. Values belong to the binder of their own block, whether it stands above or below them.

Legend:
mouse TNC rCd4-His-FBG [1] = biological target: T1, mouse TNC rCd4-His-FBG (rat; mouse, UniProt P05540 209-391; Q80YX1 1883-2110, limits assumed); test: SPR BIAcore T200, 37 C, IgG4 captured on anti-human Fc, rCd4-His-FBG injected, 1:1 fit; relative to theoretical Rmax
T1 construct: domain: domains 3 and 4;domain: FBG; Biotinylated in the capture ELISA; also called Mu TNC; mTNC; not shown: 6His tag
T1 sequence (chain (part 1 of 2), looked up): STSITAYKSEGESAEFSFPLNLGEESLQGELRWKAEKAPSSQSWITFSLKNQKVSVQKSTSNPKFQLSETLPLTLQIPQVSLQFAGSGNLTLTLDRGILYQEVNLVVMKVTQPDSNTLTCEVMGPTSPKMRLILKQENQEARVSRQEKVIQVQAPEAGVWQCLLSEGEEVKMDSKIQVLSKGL
T1 sequence (chain (part 2 of 2), looked up): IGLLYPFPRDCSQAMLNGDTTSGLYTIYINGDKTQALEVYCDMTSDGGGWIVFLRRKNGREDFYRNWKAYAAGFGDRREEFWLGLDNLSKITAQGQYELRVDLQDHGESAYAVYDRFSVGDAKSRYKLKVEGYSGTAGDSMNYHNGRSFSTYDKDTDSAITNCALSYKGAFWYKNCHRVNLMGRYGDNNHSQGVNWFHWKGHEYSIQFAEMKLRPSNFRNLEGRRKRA
Protocol: (§1) For the kinetic assay ˜1,500-1,900 response units (RU) of anti-human Fc IgG (GE, BR-1008-39) was immobilised in all flow-cells (FC1-4) on a Series S CM5 sensor chip (BR-1005-30) using EDC/NHS cross-linking chemistry according to the amine coupling kit protocol (GE, BR-1000-50). […] Antibody capture levels ranged typically from 70 RU (for TNR interactions) to 90 RU (for TNC interactions).
(§2) A 1:1 dilution series of antigen in HBS-P+ (30 nM of human and mouse TNC rCd4-His-FBG and 480 nM of human TNR rCd4-His-FBG) was injected with a flow-path via the reference flow cell (FC1 and FC3, respectively) and the antibody capture flow cell (FC2 and FC4, respectively) with a flow rate of 30 μl/min. The association and dissociation phases were measured over a 3.5 and 30 min time period, respectively, for human and mouse TNC rCd4-His-FBG, and 2 and 8 min time period for human TNR rCd4-His-FBG. For interaction analysis with human and mouse TNC rCD4-His-FBG regeneration of free capture antibody surfaces after each antigen injection was done by injection of 3 M MgCl 2 for 60 s and for each sample injection a fresh NSCT antibody was captured. Carry over of antigen was prohibited by an extra needle wash step with 50% DMSO before every injection. Runs were performed at the more physiologically relevant temperature of 37° C.
(§3) Kinetic parameters were determined by reference cell subtraction and fitting the sensorgram experimental data to a 1:1 interaction model using the BIAcore T200 Evaluation software version 2.0.

human TNR rCd4-His-FBG [2] = biological target: T2, human TNR rCd4-His-FBG (rat; human, UniProt P05540 209-391; Q92752 1128-1358, limits assumed); test: as above
T2 construct: domain: domains 3 and 4;domain: FBG; also called Hu TNR; hTNR; not shown: 6His tag
T2 sequence (chain (part 1 of 2), looked up): T1 sequence (chain (part 1 of 2), looked up)
T2 sequence (chain (part 2 of 2), looked up): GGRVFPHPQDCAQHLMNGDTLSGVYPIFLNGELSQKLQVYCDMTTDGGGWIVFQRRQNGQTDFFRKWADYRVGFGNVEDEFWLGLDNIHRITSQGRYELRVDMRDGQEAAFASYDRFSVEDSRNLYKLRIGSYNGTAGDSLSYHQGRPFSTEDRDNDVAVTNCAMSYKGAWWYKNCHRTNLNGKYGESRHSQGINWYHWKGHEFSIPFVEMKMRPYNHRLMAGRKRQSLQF
Protocol: as §1, §2, §3

human TNC rCd4-His-FBG [3] = biological target: T3, human TNC rCd4-His-FBG (rat; human, UniProt P05540 209-391; P24821 1974-2201, limits assumed); test: as above
T3 construct: domain: domains 3 and 4;domain: FBG; C-terminal FBG fusion made in HEK293F cells; biotinylated in the ELISA and HTRF assays; also called Hu TNC; hTNC; not shown: 6His tag
T3 sequence (chain (part 1 of 2), looked up): T1 sequence (chain (part 1 of 2), looked up)
T3 sequence (chain (part 2 of 2), looked up): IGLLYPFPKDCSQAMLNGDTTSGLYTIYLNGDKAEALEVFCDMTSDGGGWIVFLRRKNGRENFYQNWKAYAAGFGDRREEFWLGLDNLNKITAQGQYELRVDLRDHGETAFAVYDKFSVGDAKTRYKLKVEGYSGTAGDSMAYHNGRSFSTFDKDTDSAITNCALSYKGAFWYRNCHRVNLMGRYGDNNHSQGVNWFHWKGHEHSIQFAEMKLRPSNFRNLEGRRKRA
Protocol: as §1, §2, §3

mouse TNC rCd4-His-FBG [4] = biological target: T1, mouse TNC rCd4-His-FBG; test: SPR BIAcore T200, 37 C, IgG4 captured on anti-human Fc, rCd4-His-FBG injected, 1:1 fit
Protocol: as §1, §2, §3

human TNR rCd4-His-FBG [5] = biological target: T2, human TNR rCd4-His-FBG; test: as above
Protocol: as §1, §2, §3

human TNC rCd4-His-FBG [6] = biological target: T3, human TNC rCd4-His-FBG; test: as above
Protocol: as §1, §2, §3

human TNR rCd4-His-FBG [7] = biological target: T2, human TNR rCd4-His-FBG; test: SPR, 37 C, purified IgG4 captured on anti-human Fc
Protocol: (§4) Detailed kinetic parameters were evaluated for the 9 prioritised IgG4 antibodies. Binding characteristics were determined for interaction with human, […] TNC rCD4-His-FBG, and human TNR rCD4-His-FBG. Kinetic assays followed essentially the same protocols as for the off-rate determinations described above, with some modifications as follows. To improve the accuracy of kinetic parameter determination, anti-human Fc IgG was immobilised at lower levels (2229 RU), resulting in a corresponding reduction in the amount of anti-FBG IgG4 captured. Purified anti-FBG IgG4 was diluted to a concentration of 3.5 nM in PBS, pH 7.4, 0.05% Tween-20 and injected into FC2 at a flow rate of 10 μl/min, 60 s contact time. […] Antigens were prepared by doubling dilution in PBS, pH 7.4, 0.05% Tween-20 (highest concentration 100 nM except mouse rCD4-His-FBG which was 7 nM). Assays were performed at 37° C. (30 μl/min, 120 s contact time; mouse rCD4-His-FBGFBG 10 μl/min, 60 s contact time), with both the flow cell and injection chamber equilibrated to this temperature. As before, kinetic parameters were determined by reference cell subtraction and fitting the sensogram experimental data assuming a 1:1 interaction using BIAevaluation software (GE, BR-1005-97).

human TNC rCd4-His-FBG [8] = biological target: T3, human TNC rCd4-His-FBG; test: SPR, 37 C, purified IgG4 captured on anti-human Fc
Protocol: as §4

- SA, surface activity (mouse TNC rCd4-His-FBG [1]): 303%
- SA, surface activity (human TNR rCd4-His-FBG [2]): 184%
- SA, surface activity (human TNC rCd4-His-FBG [3]): 298%
- Kd (mouse TNC rCd4-His-FBG [4]): 0.433 nM
- koff (mouse TNC rCd4-His-FBG [4]): 0.004 s⁻¹
- kon (mouse TNC rCd4-His-FBG [4]): 9.27e+06 M⁻¹ s⁻¹
- Kd (human TNR rCd4-His-FBG [5]): 52.7 nM
- koff (human TNR rCd4-His-FBG [5]): 0.059 s⁻¹
- kon (human TNR rCd4-His-FBG [5]): 1.13e+06 M⁻¹ s⁻¹
- Kd (human TNC rCd4-His-FBG [6]): 1.24 nM
- koff (human TNC rCd4-His-FBG [6]): 0.0042 s⁻¹
- kon (human TNC rCd4-His-FBG [6]): 3.4e+06 M⁻¹ s⁻¹
- fold lower affinity than to human TNC FBG (human TNR rCd4-His-FBG [7]): > 70 fold
B1: IgG4 165_13_C3 (antibody, V domains shown)
VH: QVQLVESGGGLVQPGRSLRLSCAASGFTFDDYAMHWVRQAPGKGLEWVSGISGSGGSTYYADSVKGRFTISRDNAKNSLYLQMNSLRAEDTALYYCAKSYQSDEDAFDIWGQGTMVTVSS
VL: DIQMTQSPASLPTPVGDRVTITCRASQYIQGFLNWYQQKPGKAPKLLIYDASNLETGVPSRFSGSGSGTDFTLTISSLQPEDFATYYCQQSYSTPQTFGQGTKVDIKR
notes: Human IgG4 with hinge modification S241P; also called MAb C3; C3 Mab

- fold lower affinity than to human TNC FBG (human TNR rCd4-His-FBG [7]): > 70 fold
- Kd (human TNC rCd4-His-FBG [8]): < 1 nM
B2: 160_01_A4 IgG4 (antibody, V domains shown)
VH: EVRLVQSGAEVKKPGASVKVSCKVSGYTLTELSMHWVRQAPGKGLEWMGGFDPEDGETIYAQKFQGRVTMTEDTSTDTAYMELSSLRSEDTAVYYCATAQKETLGNAIWGQGTLVTVSS
VL: B1 VL with P14S, K45R, D50A, N53T, E55Q, T56D, S67Y, Q96W, D105E

- SA, surface activity (mouse TNC rCd4-His-FBG [1]): 304%
- SA, surface activity (human TNR rCd4-His-FBG [2]): 233%
- SA, surface activity (human TNC rCd4-His-FBG [3]): 297%
- Kd (mouse TNC rCd4-His-FBG [4]): 0.67 nM
- koff (mouse TNC rCd4-His-FBG [4]): 0.0042 s⁻¹
- kon (mouse TNC rCd4-His-FBG [4]): 6.28e+06 M⁻¹ s⁻¹
- Kd (human TNR rCd4-His-FBG [5]): 53.1 nM
- koff (human TNR rCd4-His-FBG [5]): 0.058 s⁻¹
- kon (human TNR rCd4-His-FBG [5]): 1.11e+06 M⁻¹ s⁻¹
- Kd (human TNC rCd4-His-FBG [6]): 0.443 nM
- koff (human TNC rCd4-His-FBG [6]): 0.0041 s⁻¹
- kon (human TNC rCd4-His-FBG [6]): 9.35e+06 M⁻¹ s⁻¹
B3: IgG4 165_13_C3* (antibody, V domains shown)
VH: B1 VH
VL: B1 VL with A9S, P12S, T13A, P14S
notes: Hinge-modified IgG4 (S241P); neither is tied by name to C3* as tested; also called NSCT-141
